Data reported in patent US10632208B2, “Peptide-mediated drug delivery across epithelial barrier” (Purdue Research Foundation, priority 2017, dated 2020).

What was measured:
[1] = tested on: NF-κB(p65); experiment: Immunoblot of NF-κB activation in Caco-2 cytoplasmic and nuclear extracts; assay type: cell-based, human; conditions: LAP 1000 ng/mL or TNF-α 10 ng/mL
Protocol: To extract the proteins from Caco-2 cells, cells were seeded in 6-well plates for 14-21 days. Following treatment, the cells were washed, scraped from the bottom of 6-well plates, suspended in PBS, and pelleted by centrifugation. Total protein from Caco-2 cells was extracted using the M-PER Extraction Kit (Thermo Fisher Scientific). Detergent-insoluble (membrane) and detergent-soluble (cytosolic) proteins were isolated using a Mem-Per Eukaryotic Protein Extraction Kit (Thermo Fisher Scientific) while the cytosolic and nuclear proteins were extracted using NE-PER Extraction Reagent (Thermo Fisher Scientific). To extract proteins from ileal epithelial cells, the epithelial cell fraction from ileal tissues were isolated as described above and the detergent-insoluble and the detergent-soluble proteins were isolated using a Mem-Per Eukaryotic Protein Extraction Kit.
To extract total protein from intact bacterial cells, sample solvent buffer and sonication (3 cycles of […]) were used. To isolate the cell wall-associated proteins bacterial pellets were resuspended in 0.5 ml protein extraction buffer (0.5% SDS, 10 mM Tris at pH 6.9), and incubated at 37° C. for 30 min with agitation. The samples were centrifuged (14,000×g, 10 min, 4° C.), and the supernatants (containing cell wall-associated proteins) were retained. Halt proteases and phosphatase inhibitors (Thermo Fisher Scientific) were used during all of the protein extraction procedures. The protein concentrations were determined by BCA assay (Thermo Fisher Scientific), and separated on SDS-PAGE gels (10-12.5% polyacrylamide) and electro-transferred to polyvinylidene difluoride (PVDF) membrane (Millipore). The membranes were then blocked in 5% nonfat dry milk (NFDM) in 0.1 M Tris-buffered saline, pH 7.5 (TBS) containing 0.1% Tween 20 (TBST) for at least 1 h. All of the primary antibodies were diluted in 5% bovine serum albumin (BSA) or 5% NFDM in TBST and incubated overnight. Secondary antibodies (1:2000 in 5% NFDM in TBST) incubated for 1 h at 37° C., and a chemiluminescence method was performed using LumiGLO reagent (Cell Signaling). The membranes were exposed to X-ray films or visualized using the Chemi-Doc XRS system (Bio-Rad). To immunoprobe the same membrane with another antibody, the originally bound antibodies from the membranes were removed by incubating the membranes in Restore Western Blot Stripping Buffer (Thermo Fisher Scientific) according to the manufacturer's protocol. To compare the reaction intensities, the average band densities were determined using Quantity One software (Bio-Rad). Densitometry reports represent the mean±SEM after normalization to the loading control and is presented as % change of protein with the average for untreated cells (control) set at 100%. Immunoblots and densitometric reports are representative of 2-3 independent experiments.

[2] = tested on: NF-κB(p65); experiment: Confocal immunofluorescence of p65 localization in Caco-2 cells; assay type: cell-based, human; conditions: 30 min
Protocol: For antibody labeling in cells, Caco-2 cells, were grown to 40-50% confluence in four-chambered slides (Millipore). At the end of the treatment, the cells were fixed with 3.7% formaldehyde in PBS for 20 min and permeabilized and blocked with PBS containing 0.3% Triton X-100 and 3% BSA (Sigma-Aldrich) for 1 h at room temperature and then incubated with respective antibodies overnight at 4° C. Following antibody incubation, the cells were washed with PBS (3 cycles, 5 min) and incubated with FITC or Alexa Fluor 555-conjugated secondary antibody for 2 h at room temperature. The nuclei were stained with DAPI (500 ng/ml; Cell signaling) and slides were mounted in ProLong antifade reagent (Cell Signaling).
All images were acquired using a Nikon A1R MP Multiphoton (Nikon) Confocal fluorescence microscope using a 60× oil immersion objective equipped with the Nikon Elements software (Nikon) at the Purdue Bioscience Imaging Facility. The X-Z and Y-Z cross-sections were produced by orthogonal reconstructions from z-stack scanning at 0.15 μm intervals taken with 60× objective in 5 μm thick paraffin embedded tissue section. Three-dimensional reconstructions were performed using Nikon elements software (Nikon).

[3] = tested on: NF-κB; experiment: NF-κB luciferase reporter assay in RAW 264.7 cells; assay type: cell-based, murine; conditions: for NF-κB activation: purified proteins, LPS positive control; for NF-κB activation by LAP domains (luciferase activity): 1 μg/mL each, 6 h
Protocol: The NF-κB Luciferase reporter RAW 264.7 cell line (Novus Biologicals), which expresses an optimized Renilla luciferase reporter gene (RenSP) under the transcriptional control of an NF-κB response element, was used. The cells were seeded (1×10^5 cells/well) into 96-well luminometer-compatible plates for 16 h and then treated with analytes for 6 h. Media from each well were aspirated, and then 100 μL of ice-cold PBS was added to each well. The plates were then frozen solid at −80° C. overnight to completely lyse the cells, thawed back to room temperature, and luciferase assays were performed using the LightSwitch Luciferase assay kit (Novus Biologicals). Luminescence was measured as the relative luminescence units (RLU) using Spectramax (Spectramax, Molecular Devices) and reported as the relative fold change compared with that of the control cells that were treated with media alone. Recombinant human or mouse TNF-α (R&D Systems) and polymyxin B, LPS (E. coli Serotype R515, Re, TLR grade), and proteinase K (each from Sigma-Aldrich) were used.

Molecule: TNF-α [reference compound]
- time of appearance of cytoplasmic phospho-IκBα (Ser32) [1]: 15 min
- time of increase in nuclear p65 and P-p65 [1]: 30 min
- localization of p65 ([2]; Caco-2 cells, LAP 1 μg/mL or TNF-α 10 ng/mL): in the nucleus
- localization of p65 ([2]; Hsp60 knocked-down Caco-2 cells): slight reduction in the nuclear translocation of p65

B1: InlA: purified recombinant InlA, Listeria surface protein Internalin A (protein)
chain: ATITQDTPINQIFTDTALAEKMKTVLGKTNVTDTVSQTDLDQVTTLQADRLGIKSIDGVEYLNNLTQINFSNNQLTDITPLKNLTKLVDILMNNNQIADITPLANLTNLTGLTLFNNQITDIDPLKNLTNLNRLELSSNTISDISALSGLTSLQQLSFGNQVTDLKPLANLTTLERLDISSNKVSDISVLAKLTNLESLIATNNQISDITPLGILTNLDELSLNGNQLKDIGTLASLTNLTDLDLANNQISNLAPLSGLTKLTELKLGANQISNISPLAGLTALTNLELNENQLEDISPISNLKNLTYLTLYFNNISDISPVSSLTKLQRLFFYNNKVSDVSSLANLTNINWLSAGHNQISDLTPLANLTRITQLGLNDQAWTNAPVNYKANVSIPNTVKNVTGALIAPATISDGGSYTEPDITWNLPSYTNEVSYTFSQPVTIGKGTTTFSGTVTQPLKAIFNVKFHVDGKETTKEVEAGNLLTEPAKPVKEGHTFVGWFDAQTGGTKWNFSTDKMPTNDINLYAQFSINSYTATFDNDGVTTSQTVDYQGLLQEPTAPTKEGYTFKGWYDAKTGGDKWDFATSKMPAKNITLYAQYSANSYTATFDVDGKSTTQAVDYQGLLKEPKAPTKAGYTFKGWYDEKTDGKKWDFATDKMPANDITLYAQFTKNPVAPPTTGGNTPPTTNNGGNTTPPSANIPGSDTSNTSTGNSASTTSTMNAYDPYNSKEASLPTT
- NF-κB activation [3]: neutral

B2: C1: LAP fragment C1 (Gly412-Val648); histidine-tagged form SEQ ID NO: 8 (protein)
chain: GGIGDIYNGFIPSLTLGCGSYGKNSVSQNVSATNLLNVKRIADRRNNMQWFKLPPKIFFEKYSTQYLQKMEGVERVFIVTDPGMGSFKYVDVVIEHLKKRGNDVAYQVFADVEPDPSDVTVYKGAELMKDFKPDTIIALGGGSAMDAAKGMWLFYEHPEASFFGLKQKFLDIRKRTFKYPKLGGKAKFVAIPTTSGTGSEVTPFAVITDKENNIKYPLADYELTPDVAIVDAQYVTTV
modifications: Listeria Adhesion Protein C1 domain
- NF-κB activation by LAP domains (luciferase activity) [3]: activity similar to the untreated control cells

B3: C2: LAP fragment C2 (Pro649-Val866); histidine-tagged form SEQ ID NO: 9 (protein)
chain: PAHITADTGMDVLTHAIESYVSVMASDYTRGLSIRAIELVFENLRESVLTGDPDAREKMHNASALAGMAFANAFLGINHSLAHKIGPEFHIPHGRANAILMPHVIRYNALKPKKHALFPRYESFRADEDYARISRIIGFPAATTEEGVKSLVDEIIKLGKDVGIDMSLKGQNVAKKDLDAVVDTLADRAFMDQCTTANPKQPLVSELKEIYLEAYKGV
modifications: Listeria Adhesion Protein C2 domain
- NF-κB activation by LAP domains (luciferase activity) [3]: activity similar to the untreated control cells

B4: N2: LAP fragment N2 (Gly224-Gly411); histidine-tagged form SEQ ID NO: 3 (protein)
chain: GNVPAYIDKTAKIKRSVNDIILSKSFDQGMICASEQAVIVDKEVAKEVKAEMEANKCYFVKGAEFKKLESYVINPEKGTLNPDVVGKSPAWIANQAGFKVPEDTKILVAEIKGVGDKYPLSHEKLSPVLAFIEAANQAEAFDRCEEMLVYGGLGHSAVIHSTDKEVQKAFGIRMKACRIIVNAPSAQG
modifications: Listeria Adhesion Protein N2 domain
- NF-κB activation by LAP domains (luciferase activity) [3]: activated NF-κB nearly as effectively as the full-length LAP

B5: N1: LAP fragment N1 (Met1-Pro223); histidine-tagged form SEQ ID NO: 7 (protein)
chain: MAIKENAAQEVLEVQKVIDRLADNGQKALKAFESYNQEQVDNIVHAMALAGLDQHMPLAKLAVEETGRGLYEDKCIKNIFATEYIWNNIKNNKTVGVINEDVQTGVIEIAEPVGVVAGVTPVTNPTSTTLFKAIIAIKTRNPIIFAFHPSAQRCSSAAAKVVYDAAIAAGAPEHCIQWVEKPSLEATKQLMNHDKVALVLATGGAGMVKSAYSTGKPALGVGP
modifications: Listeria Adhesion Protein N1 domain
- NF-κB activation by LAP domains (luciferase activity) [3]: activity similar to the untreated control cells

B6: InlB: purified recombinant InlB protein of Listeria (protein, UniProt P0DQD2 31-630, looked up)
Internalin B: AKVQAETITVPTPIKQIFSDDAFAETIKDNLKKKSVTDAVTQNELNSIDQIIANNSDIKSVQGIQYLPNVTKLFLNGNKLTDIKPLANLKNLGWLFLDENKVKDLSSLKDLKKLKSLSLEHNGISDINGLVHLPQLESLYLGNNKITDITVLSRLTKLDTLSLEDNQISDIVPLAGLTKLQNLYLSKNHISDLRALAGLKNLDVLELFSQECLNKPINHQSNLVVPNTVKNTDGSLVTPEIISDDGDYEKPNVKWHLPEFTNEVSFIFYQPVTIGKAKARFHGRVTQPLKEVYTVSYDVDGTVIKTKVEAGTRITAPKPPTKQGYVFKGWYTEKNGGHEWNFNTDYMSGNDFTLYAVFKAETTEKAVNLTRYVKYIRGNAGIYKLPREDNSLKQGTLASHRCKALTVDREARNGGKLWYRLKNIGWTKAENLSLDRYDKMEYDKGVTAYARVRNASGNSVWTKPYNTAGAKHVNKLSVYQGKNMRILREAKTPITTWYQFSIGGKVIGWVDTRALNTFYKQSMEKPTRLTRYVSANKAGESYYKVPVADNPVKRGTLAKYKNQKLIVDCQATIEGQLWYRIRTSSTFIGWTKAANLRAQK
- NF-κB activation ability after polymyxin-B treatment [3]: retained the NF-κB activation ability
- NF-κB activation after proteinase-K treatment [3]: abolished
- NF-κB activation ability after heat treatment ([3]; 100° C., 10 min): abolished the NF-κB activation ability
- NF-κB activation [3]: activated NF-κB
